Reference: US7485618B2, “FGF-5 supported and binding peptides” (Genencor International, Inc., priority 2003, dated 2009)

Biological target: T1, FGF-5 (Homo sapiens, UniProt P12034)
T1 construct: host or cells: FGF-5 added exogenously to NR6R-3T3 murine fibroblasts
T1 sequence (P12034 21-268): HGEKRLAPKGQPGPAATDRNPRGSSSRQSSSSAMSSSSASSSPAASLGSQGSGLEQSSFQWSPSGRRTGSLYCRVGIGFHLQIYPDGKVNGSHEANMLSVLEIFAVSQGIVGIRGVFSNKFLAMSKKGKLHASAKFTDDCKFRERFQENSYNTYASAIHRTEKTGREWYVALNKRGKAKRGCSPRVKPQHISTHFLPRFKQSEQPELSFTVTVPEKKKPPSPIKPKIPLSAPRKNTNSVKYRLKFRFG
Experiment: BLA binding assay on FGF-5 coated plates, nitrocefin readout
Conditions: purified peptide-BLA fusions at 0.1 nM, bound to FGF-5
Procedure: This Example describes secondary screening methods used to analyze FGF-5 binding npeptides. Individual clones were picked and grown up in 5 ml LB+5 ppm CMP overnight at 37° C. The cell pastes were then treated with 125μ of B-PER reagent (Pierce) for 30 min with slow mixing. COSTAR plates (96-well) were coated with 0.1 μg (100 μl of 1 μg/ml) FGF-5, carrier-free (R&D Systems #237-F5/CF, Lot #GQ18304A) with gentle rocking at 4° C. overnight, followed by blocking with Superblock blocking buffer (Pierce) for several hours at room temperature. Then, 100 μl B-Per treated supernatant from individual clones from pGV02-L were added to the FGF-5 coated plates. After one hour, plates were washed six times with PBS, 0.05% TWEEN®-20 and 200 μl of nitrocefin assay buffer containing 0.1 mg/ml nitrocefin (Oxoid) was added to measure residual bound beta-lactamase activity, using Abs490/min. Control wells contained pCB04 (See, FIG. 1C) beta-lactamase as a control. […]
Cell pastes were harvested from the 200 ml cell cultures described in Example 6, by centrifugation at 3,000×g for 10 min. […] BLA activity of all liquid fractions was assayed using nitrocefin, and the concentration of fusion proteins in each fraction was calculated assuming the same specific activity as the WT enzyme. […]

B1: WT (wild-type): Wild-type BLA (E. cloaceae beta-lactamase) without peptide, control for binding of the fusions (protein)
chain: TPVSEKQLAEVVANTITPLMKAQSVPGMAVAVIYQGKPHYYTFGKADIAANKPVTPQTLFELGSISKTFTGVLGGDAIARGEISLDDAVTRYWPQLTGKQWQGIRMLDLATYTAGGLPLQVPDEVTDNASLLRFYQNWQPQWKPGTTRLYANASIGLFGALAVKPSGMPYEQAMTTRVLKPLKLDHTWINVPKAEEAHYAWGYRDGKAVRVSPGMLDAQAYGVKTNVQDMANWVMANMAPENVADASLKQGIALAQSRYWRIGSMYQGLGWEMLNWPVEANTVVEGSDSKVALAPLPVAEVNPPAPPVKASWVHKTGSTGGFGSYVAFIPEKQIGIVMLANTSYPNPARVEAAYHILEALQ
Percent Bound at 0.1 nM: 0.4%
